# Patent publication US20160251440A1 (Ablynx, published 2016)
# T1: recombinant IL-3Rα ectodomain (human, UniProt P26951 19-305)
# T1 construct: extracellular domain; also called recombinant IL-3Ra; biotinylated-IL-3Rα ectodomain
# T1 sequence (looked up): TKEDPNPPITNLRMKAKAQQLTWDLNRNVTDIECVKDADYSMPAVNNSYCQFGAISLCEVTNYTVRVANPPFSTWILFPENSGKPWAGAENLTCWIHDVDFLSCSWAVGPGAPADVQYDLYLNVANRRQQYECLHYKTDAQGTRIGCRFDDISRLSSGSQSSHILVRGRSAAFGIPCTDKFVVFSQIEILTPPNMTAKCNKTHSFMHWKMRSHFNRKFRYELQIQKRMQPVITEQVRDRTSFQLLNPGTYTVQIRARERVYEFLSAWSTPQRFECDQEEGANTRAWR
# B1: 55A01 (VHH)
# VHH: EVQLVESGGGSVQAGGSLRLSCTTSGRALNMYVMGWFRQAPGNEREFVAATSSSGGSTSYPDSVKGRFTISRDNAKNTVYLQMNSLKPEDTAAYRCAASPYVSTPTMNILEEYRYWGLGTQVTVSS
# notes: also called CD123#2; A0110055A01
# B2: 281F12-35GS-55A01 (bispecific antibody)
# chain: EVQLVESGGGLVQAGDSLRLSCAASGRAFSRYAMGWFRQAPGKEREFVAAIGWGPSKTNYADSVKGRFTISRDNAKNTVYLQMNTLKPEDTAVYSCAAKFVNTDSTWSRSEMYTYWGQGTLVTVSSGGGGSGGGGSGGGGSGGGGSGGGGSGGGGSGGGGSEVQLVESGGGSVQAGGSLRLSCTTSGRALNMYVMGWFRQAPGNEREFVAATSSSGGSTSYPDSVKGRFTISRDNAKNTVYLQMNSLKPEDTAAYRCAASPYVSTPTMNILEEYRYWGQGTLVTVSS
# notes: also called CXCR4#2-CD123#2; 281F12-55A01
# B3: 57A07-35GS-281F12 (bispecific antibody)
# chain: EVQLVESGGGLVQAGGSLRLSCAASGSIFSGNVMGWYRRQAPGKEREWVAAIASGGSIYYRDSVKGRFTISRDNAKNTVYLQMNSLKPEDTAVYYCNSHPPTLPYWGQGTLVTVSSGGGGSGGGGSGGGGSGGGGSGGGGSGGGGSGGGGSEVQLVESGGGLVQAGDSLRLSCAASGRAFSRYAMGWFRQAPGKEREFVAAIGWGPSKTNYADSVKGRFTISRDNAKNTVYLQMNTLKPEDTAVYSCAAKFVNTDSTWSRSEMYTYWGQGTLVTVSS
# notes: FLAG3-His6 also made; also called CD123#1-CXCR4#2; 57A07-281F12
# B4: 57A07 (VHH)
# VHH: EVQLVESGGGLVQAGGSLRLSCAASGSIFSGNVMGWYRRQAPGKEREWVAAIASGGSIYYRDSVKGRFTISRDNAKNTVYLQMNSLKPEDTAVYYCNSHPPTLPYWGLGTQVTVSS
# notes: also called CD123#1; A0110057A07
# B5: 03F11-35GS-281F12 (bispecific antibody)
# chain: EVQLVESGGGSVQPGGSLTLSCGTSGRTFNVMGWFRQAPGKEREFVAAVRWSSTGIYYTQYADSVKSRFTISRDNAKNTVYLEMNSLKPEDTAVYYCAADTYNSNPARWDGYDFRGQGTQVTVSSGGGGSGGGGSGGGGSGGGGSGGGGSGGGGSGGGGSEVQLVESGGGLVQAGDSLRLSCAASGRAFSRYAMGWFRQAPGKEREFVAAIGWGPSKTNYADSVKGRFTISRDNAKNTVYLQMNTLKPEDTAVYSCAAKFVNTDSTWSRSEMYTYWGQGTQVTVSS
# notes: also called CD4#8-35GS-CXCR4#2; CD4#8-CXCR4#2
# Tests used:
# [1] = biological target: T2, human IL-3Rα (CD123), cell-expressed (human, UniProt P26951 19-378); assay: FACS, THP-1 cells
# T2 construct: whole, on cells; also called IL-3Ra; Hek-IL-3Rα
# [2] = biological target: T2, human IL-3Rα (CD123), cell-expressed; assay: FACS, MOLM-13 cells
# [3] = biological target: T2, human IL-3Rα (CD123), cell-expressed; assay: FACS, HEK293T-IL-3Rα cells
# [4] = biological target: T1, recombinant IL-3Rα ectodomain; assay: SPR ProteOn, immobilised IL-3Rα ectodomain
# [5] = biological target: T1, recombinant IL-3Rα ectodomain; assay: competition ELISA, coated mAb 7G3 + biotinylated IL-3Rα ectodomain
# [6] = biological target: T1, recombinant IL-3Rα ectodomain; assay: ELISA on recombinant IL-3Ra ectodomain (panel 'IL-3Ra ELISA', lower left)
# [7] = biological target: T2, human IL-3Rα (CD123), cell-expressed; assay: flow cytometry on Molm-13 cells; EC50(M) printed in the legend box beside the curves
# [8] = biological target: T3, human CXCR4 (on cells, viral lipoparticles or membrane extracts) (human, UniProt P61073 1-352); assay: flow cytometry at one concentration on Jurkat E6-1 cells (CXCR4+/CD123-), anti-FLAG detection
# T3 construct: whole, on cells; also called hCXCR4 VLPs; CXCR4-lip
# [9] = biological target: T3, human CXCR4 (on cells, viral …); assay: cell-based or functional assay
# [10] = biological target: T4, CXCR4 and IL-3Rα (CD123) co-expressed on MOLM-13 / THP-1 cells (human, UniProt P61073 1-352; P26951 19-378); assay: flow cytometry on THP-1 cells (CXCR4 and IL-3Ra)
# T4 construct: whole, on cells; two separate membrane proteins on one cell, not a complex; target of bispecifics on double-positive cells; also called CXCR4+/CD123+ cells
# [11] = biological target: T4, CXCR4 and IL-3Rα (CD123) co-expressed …; assay: flow cytometry on MOLM-13 cells (IL-3Ra higher than CXCR4)
# [12] = biological target: T1, recombinant IL-3Rα ectodomain; assay: ELISA on recombinant IL-3Ra ectodomain (lower right panel)
# [13] = biological target: T3, human CXCR4 (on cells, viral …); assay: ELISA on coated CXCR4 viral lipoparticles (panel 'CXCR4 VLP Binding', upper left)
# [14] = biological target: T4, CXCR4 and IL-3Rα (CD123) co-expressed …; assay: flow cytometry at one concentration, 4.6 nM, on MOLM-13 cells (CXCR4+/CD123+), anti-FLAG detection
# [15] = biological target: T3, human CXCR4 (on cells, viral …); assay: ELISA on coated CXCR4 viral lipoparticles (both upper panels)
# [16] = biological target: T3, human CXCR4 (on cells, viral …); assay: cell-based or functional assay; remark: listed apart in the source
# [17] = biological target: T5, CXCR4 and CD4 co-expressed on cells (MOLM-13, THP-1, MT-4, PBMC; Jurkat CD4 low) (human, UniProt P61073 1-352; P01730 26-458); assay: cell-based or functional assay
# [18] = biological target: T5, CXCR4 and CD4 co-expressed on cells …; assay: cell-based or functional assay; remark: listed apart in the source
# [19] = biological target: T5, CXCR4 and CD4 co-expressed on cells …; assay: cell-based or functional assay; remark: listed apart in the source
# [20] = biological target: T5, CXCR4 and CD4 co-expressed on cells …; assay: FACS, MOLM-13 cells (CXCR4+/CD4+)
# [21] = biological target: T5, CXCR4 and CD4 co-expressed on cells …; assay: FACS, Jurkat E6-1 cells (CXCR4+/CD4 low)
# [22] = biological target: T5, CXCR4 and CD4 co-expressed on cells …; assay: flow cytometry on THP-1 cells (CD4 and CXCR4), detection via tag
# T4 sequence (P61073 whole entry, one chain of several): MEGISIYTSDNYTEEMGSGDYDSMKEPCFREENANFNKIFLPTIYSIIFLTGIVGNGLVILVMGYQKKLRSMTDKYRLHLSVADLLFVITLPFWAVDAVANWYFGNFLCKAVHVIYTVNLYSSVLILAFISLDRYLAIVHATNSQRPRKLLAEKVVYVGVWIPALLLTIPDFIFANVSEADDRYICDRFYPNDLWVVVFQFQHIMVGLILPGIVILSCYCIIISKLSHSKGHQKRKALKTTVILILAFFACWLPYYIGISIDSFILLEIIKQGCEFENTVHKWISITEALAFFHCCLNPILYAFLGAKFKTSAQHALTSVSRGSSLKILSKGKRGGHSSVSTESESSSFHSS
# T5 sequence (P61073 whole entry, chain 1 of 2, other chains not shown): as the sequence (P61073 whole entry, one chain of several) above
# T3 sequence (P61073 whole entry): as the sequence (P61073 whole entry, one chain of several) above
binder,measurement,setting,value
B1,EC50,[1],11 nM
same,EC50,[2],8.2 nM
same,EC50,[3],1.1 nM
same,Kd,[4],17.1 nM
same,koff,[4],0.0014 s⁻¹
same,kon,[4],84000 M⁻¹ s⁻¹
same,IC50,[5],40 nM
same,EC50 (read off the curve),[6],~1 nM
same,EC50,[7],13 nM
same,binding result,[8],no binding (tested: 4.6 nM)
B2,"Fold inc. vs CXCR4#2, Jurkat E6-1",[9],1.13 fold
same,"Fold inc. vs CXCR4#2, MOLM-13",[9],10.9 fold
same,"IC50, CXCL-12 chemotaxis, Jurkat E6-1",[9],86 nM
same,"IC50, CXCL-12 chemotaxis, MOLM-13",[9],7.85 nM
same,EC50 (read off the curve),[10],~10 nM
same,EC50 (read off the curve),[11],~10 nM
same,EC50 (read off the curve),[6],~1 nM
B3,EC50 (read off the curve),[12],~0.5 nM
same,binding result,[13],binds
same,binding result,[14],binds
B4,EC50,[1],1.3 nM
same,EC50,[2],0.66 nM
same,EC50,[3],0.24 nM
same,Kd,[4],0.783 nM
same,koff,[4],0.00081 s⁻¹
same,kon,[4],1e+06 M⁻¹ s⁻¹
same,IC50,[5],1.2 nM
same,EC50 (read off the curve),[12],~0.5 nM
same,binding result,[15],no binding (tested: about 1E-5 M)
same,EC50,[7],0.67 nM
B5,"Fold increase vs CXCR4#2, Jurkat E6-1",[16],0.2 fold
same,"Fold increase vs CXCR4#2, MOLM-13",[16],67 fold
same,"IC50, SDF-1 chemotaxis, Jurkat E6-1",[16],460 nM
same,"IC50, SDF-1 chemotaxis, MOLM-13",[16],1.29 nM
same,"IC50, HIV-1 BaL (R5), PBMC",[17],35.9 nM
same,"IC50, HIV-1 NL4.3 (X4), MT-4",[17],11.7 nM
same,"IC50, HIV-1 NL4.3 (X4), PBMC",[17],23.7 nM
same,"IC50, HIV-1 NL4.3 (X4), U87",[17],> 3330 nM
same,"IC50, HIV-1 NL4.3 wt, MT-4",[18],6 nM
same,"IC50, NL4.3 2G12 res., MT-4",[18],3 nM
same,"IC50, NL4.3 AMD-3100 res., MT-4",[18],14 nM
same,"IC50, NL4.3 CD4#8 res., MT-4",[18],95.7 nM
same,"IC50, NL4.3 CXCL-12res., MT-4",[18],70 nM
same,"IC50, NL4.3 CXCR4#2 res, MT-4",[18],> 310 nM
same,"IC50, HIV-1 HE, MT-4",[19],2 nM
same,"IC50, HIV-1 NL4.3, MT-4",[19],6 nM
same,"IC50, HIV-2 ROD, MT-4",[19],8.75 nM
same,EC50,[20],0.7 nM
same,EC50,[21],1.1 nM
same,EC50 (read off the curve),[22],~1 nM
